Experimental findings from patent US20220220215A1 are described below.

The target in test [1] is CD137 and PD1 individually fused to subunits of NanoLuc luciferase, on the same cell (NanoBiT assay cells). The experiment in a line: NanoBiT cell based protein interaction assay, luminescence on bridging of CD137 and PD1 on one cell.
For test [2], the target named is human CD137 and human PD-1 on stimulated primary human T cells (human). The experiment in a line: flow cytometry, AF488-labelled VH on pre-stimulated human CD8+ cells, average of 2 donors.
Test [3] shares this target. As to the kind of experiment: flow cytometry, labelled VH on activated CD137+ human T cells (human control), n = 1.
The target of test [4] is cynomolgus CD137 and cynomolgus PD-1 on activated CD137+ cynomolgus T cells (cynomolgus) (UniProt A9YYE7). The experiment in a line: flow cytometry, labelled VH on activated CD137+ cynomolgus T cells, n = 3.

B1: TPP-1438 CD137A-6GS-HSA2-6GS-PD138G7(G109D)-6GS-PD138G7(G109D) (bispecific antibody)
chain: EVQLVESGGGLVQPGGSLRLSCAASGFTLSNYWMNWVRQAPGKGLEWVANINQDGSERYYVDSVKGRFTISRDNAKNSLYLQMNSLRAEDTAVYYCARGGEGYGVDHYGLDVSGQGTTVTVSSGGGGSGGGGSGGGGSGGGGSGGGGSGGGGSEVQLVESGGGLVKPGGSLRLSCAASGFTFSNYNMNWVRQAPGKGLEWVSSISSAGTHIYYADSVKGRFTISRDNAKNSLYLQMNSLRAEDTAVYYCARDPHSTGWYKDFDYWGQGTLVTVSSGGGGSGGGGSGGGGSGGGGSGGGGSGGGGSEVQLVESGGGVVRPGGSLRLSCAASGFTFDDYAMSWVRQAPGKGLEWVSGITWNGGSTGYADSVKDRFTISRDNAKNSLYLQMNSLRAEDTALYYCVRDKYSYAWSYDDFDIWGQGTMVTVSSGGGGSGGGGSGGGGSGGGGSGGGGSGGGGSEVQLVESGGGVVRPGGSLRLSCAASGFTFDDYAMSWVRQAPGKGLEWVSGITWNGGSTGYADSVKDRFTISRDNAKNSLYLQMNSLRAEDTALYYCVRDKYSYAWSYDDFDIWGQGTMVTVSS
Consider B1, for which the concentration giving a half-maximal response (EC50) in test [1] came to 0.105 nM.

B2: TPP-1409 CD137A-1GS-HSA2-1GS-PD138G7(G109D) (bispecific antibody)
chain: EVQLVESGGGLVQPGGSLRLSCAASGFTLSNYWMNWVRQAPGKGLEWVANINQDGSERYYVDSVKGRFTISRDNAKNSLYLQMNSLRAEDTAVYYCARGGEGYGVDHYGLDVSGQGTTVTVSSGGGGSEVQLVESGGGLVKPGGSLRLSCAASGFTFSNYNMNWVRQAPGKGLEWVSSISSAGTHIYYADSVKGRFTISRDNAKNSLYLQMNSLRAEDTAVYYCARDPHSTGWYKDFDYWGQGTLVTVSSGGGGSEVQLVESGGGVVRPGGSLRLSCAASGFTFDDYAMSWVRQAPGKGLEWVSGITWNGGSTGYADSVKDRFTISRDNAKNSLYLQMNSLRAEDTALYYCVRDKYSYAWSYDDFDIWGQGTMVTVSS
Take B2: in test [1], the EC50 stood at 0.0259 nM.

B3: TPP-1290 PD138G7(G109D)-6GS-CD137A-6GS-HSA2 (bispecific antibody)
chain: EVQLVESGGGVVRPGGSLRLSCAASGFTFDDYAMSWVRQAPGKGLEWVSGITWNGGSTGYADSVKDRFTISRDNAKNSLYLQMNSLRAEDTALYYCVRDKYSYAWSYDDFDIWGQGTMVTVSSGGGGSGGGGSGGGGSGGGGSGGGGSGGGGSEVQLVESGGGLVQPGGSLRLSCAASGFTLSNYWMNWVRQAPGKGLEWVANINQDGSERYYVDSVKGRFTISRDNAKNSLYLQMNSLRAEDTAVYYCARGGEGYGVDHYGLDVSGQGTTVTVSSGGGGSGGGGSGGGGSGGGGSGGGGSGGGGSEVQLVESGGGLVKPGGSLRLSCAASGFTFSNYNMNWVRQAPGKGLEWVSSISSAGTHIYYADSVKGRFTISRDNAKNSLYLQMNSLRAEDTAVYYCARDPHSTGWYKDFDYWGQGTLVTVSS
For the molecule B3, the EC50 in test [2] was 1.49 nM; in test [3] it was 6.87 nM; in test [4] it was 7.17 nM; in test [1], 0.0515 nM.

B4: TPP-1410 PD138G7(G109D)-1GS-CD137A-6GS-HSA2 (bispecific antibody)
chain: EVQLVESGGGVVRPGGSLRLSCAASGFTFDDYAMSWVRQAPGKGLEWVSGITWNGGSTGYADSVKDRFTISRDNAKNSLYLQMNSLRAEDTALYYCVRDKYSYAWSYDDFDIWGQGTMVTVSSGGGGSEVQLVESGGGLVQPGGSLRLSCAASGFTLSNYWMNWVRQAPGKGLEWVANINQDGSERYYVDSVKGRFTISRDNAKNSLYLQMNSLRAEDTAVYYCARGGEGYGVDHYGLDVSGQGTTVTVSSGGGGSGGGGSGGGGSGGGGSGGGGSGGGGSEVQLVESGGGLVKPGGSLRLSCAASGFTFSNYNMNWVRQAPGKGLEWVSSISSAGTHIYYADSVKGRFTISRDNAKNSLYLQMNSLRAEDTAVYYCARDPHSTGWYKDFDYWGQGTLVTVSS
With B4, the EC50 in test [1] amounted to 0.0532 nM. In other words, the picomolar range.

B5: TPP-1246 CD137A-6GS-HSA2-6GS-PD138G7(G109D) (bispecific antibody)
chain: EVQLVESGGGLVQPGGSLRLSCAASGFTLSNYWMNWVRQAPGKGLEWVANINQDGSERYYVDSVKGRFTISRDNAKNSLYLQMNSLRAEDTAVYYCARGGEGYGVDHYGLDVSGQGTTVTVSSGGGGSGGGGSGGGGSGGGGSGGGGSGGGGSEVQLVESGGGLVKPGGSLRLSCAASGFTFSNYNMNWVRQAPGKGLEWVSSISSAGTHIYYADSVKGRFTISRDNAKNSLYLQMNSLRAEDTAVYYCARDPHSTGWYKDFDYWGQGTLVTVSSGGGGSGGGGSGGGGSGGGGSGGGGSGGGGSEVQLVESGGGVVRPGGSLRLSCAASGFTFDDYAMSWVRQAPGKGLEWVSGITWNGGSTGYADSVKDRFTISRDNAKNSLYLQMNSLRAEDTALYYCVRDKYSYAWSYDDFDIWGQGTMVTVSS
B5: the EC50 was determined as 2.22 nM in test [2], 3.75 nM in test [3], 3.63 nM in test [4] and 0.0251 nM in test [1].

B6: TPP-1439 PD138G7(G109D)-6GS-PD138G7(G109D)-6GS-CD137A-7-6GS-HSA2 (bispecific antibody)
chain: EVQLVESGGGVVRPGGSLRLSCAASGFTFDDYAMSWVRQAPGKGLEWVSGITWNGGSTGYADSVKDRFTISRDNAKNSLYLQMNSLRAEDTALYYCVRDKYSYAWSYDDFDIWGQGTMVTVSSGGGGSGGGGSGGGGSGGGGSGGGGSGGGGSEVQLVESGGGVVRPGGSLRLSCAASGFTFDDYAMSWVRQAPGKGLEWVSGITWNGGSTGYADSVKDRFTISRDNAKNSLYLQMNSLRAEDTALYYCVRDKYSYAWSYDDFDIWGQGTMVTVSSGGGGSGGGGSGGGGSGGGGSGGGGSGGGGSEVQLVESGGGLVQPGGSLRLSCAASGFTLSNYWMNWVRQAPGKGLEWVANINQDGSERYYVDSVKGRFTISRDNAKNSLYLQMNSLRAEDTAVYYCARGGEGYGVDHYGLDVSGQGTTVTVSSGGGGSGGGGSGGGGSGGGGSGGGGSGGGGSEVQLVESGGGLVKPGGSLRLSCAASGFTFSNYNMNWVRQAPGKGLEWVSSISSAGTHIYYADSVKGRFTISRDNAKNSLYLQMNSLRAEDTAVYYCARDPHSTGWYKDFDYWGQGTLVTVSS
In the case of B6, the EC50 in test [1] stood at 0.148 nM.
